T1: mCATCH(-) peptide, Ac-EQEPEPEPEQE-Am
T1 construct: Mutant with proline in place of the phenylalanine residues; also called mutant of CATCH(-)
T1 peptide: Ac-EQEPEPEPEQE-NH2

B1: mCATCH(+) peptide, Ac-QQKPKPKPKQQ-Am (peptide)
peptide: Ac-QQKPKPKPKQQ-NH2
notes: Mutant with proline in place of the phenylalanine residues; also called mutant of CATCH(+)
B2: CATCH(+) peptide, Ac-QQKFKFKFKQQ-Am (peptide)
peptide: Ac-QQKFKFKFKQQ-NH2
notes: also called CATCH (4+); positive peptide segment
B3: CATCH(-) peptide, Ac-EQEFEFEFEQE-Am (peptide)
peptide: Ac-EQEFEFEFEQE-NH2
notes: also called CATCH (6-); negative peptide segment

Legend:
[1] = molecular target: T1, mCATCH(-) peptide, Ac-EQEPEPEPEQE-Am; test: ThT fluorimetry, kinetic
[2] = molecular target: T1, mCATCH(-) peptide, Ac-EQEPEPEPEQE-Am; test: ThT fluorimetry, equimolar mixture
Method: (§1) Thioflavin T (ThT) Assay. A ThT stock solution containing 0.8 mg/mL of thioflavin T (Acros) in 1× phosphate-buffered saline (PBS) (137 mM NaCl, 2.7 mM, KCl, 10 mM Na₂HPO₄ and 1.8 mM KH₂PO₄, pH 7.4) was filtered through a 0.22 μm syringe filter (Millex), and further diluted 1:10 with 1× PBS to create a working solution. Peptide samples were mixed with the ThT working solution at a 1:10 (v/v) ratio, added to a black 96-well plate (Corning), and analyzed with a Molecular Devices SpectraMax M3 spectrophotometer (excitation 450, emission 482 nm). All samples were run in triplicate, with the mean and standard deviation of these samples reported.
(§2) Nanofiber preparation. Stock solutions of CATCH(−) and CATCH(+) were prepared by dissolving lyophilized peptides in 1× PBS to a final concentration of 500 μM. Peptide concentration was confirmed using Phe absorbance (λ=260 nm). CATCH peptides were then mixed at a 1:1 (v/v) ratio and incubated overnight for formation of nanofibers, unless stated otherwise.

[3] = molecular target: the molecule itself; test: TEM and circular dichroism of the peptide alone (self-assembly)
[4] = molecular target: the molecule itself; test: ThT fluorescence microscopy and the data taken together (self-assembly)
Method: For samples containing only CATCH peptides, ThT was mixed with samples at a 1:1 (v/v) ratio, 5 μL of each sample was placed onto a glass microscope slide, samples were covered with a cover slip, and samples were viewed using a GFP filter set. For samples containing CATCH peptides and CATCH(−)GFP, 0.75 μM CATCH(−)GFP was mixed with 200 μM CATCH(+) and 187.5 μM CATCH(−), unless otherwise specified. 5 μL of each sample was placed onto a glass microscope slide, samples were covered with a cover slip, and samples were viewed using a GFP filter set. For all samples, images were collected using an exposure time of 4 s.

[5] = molecular target: B1; test: ThT fluorimetry, equimolar mixture
Method: as §1, §2

Binder: B1
binding result [1]: no binding

Binder: B2
binding result [2]: no binding
binding result [3]: no binding

Binder: B3
binding result [4]: no binding
binding result [5]: no binding

Reference: patent US20210107943A1 (UNIVERSITY OF FLORIDA RESEARCH FOUNDATION, published 2021)
